Measured values: patent US20090208491A1 (published 2009)

T1: Notch1 antigen protein (amino acids 1-220 of human Notch1 with human Fc-tag or histidine-tag) (human, UniProt P46531 19-220)
T1 construct: range 19-220; Made in insect cells with baculovirus; also called Notch1 antigen corresponding to EGF repeats 1-5; not shown: C-terminal human Fc-tag or histidine-tag
T1 sequence (looked up): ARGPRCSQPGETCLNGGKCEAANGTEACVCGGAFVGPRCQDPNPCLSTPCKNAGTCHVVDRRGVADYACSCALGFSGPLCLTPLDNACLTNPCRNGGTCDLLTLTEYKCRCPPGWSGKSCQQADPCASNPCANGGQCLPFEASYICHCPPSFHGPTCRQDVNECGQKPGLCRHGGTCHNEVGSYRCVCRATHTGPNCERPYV


Legend:
[1] = target: Notch1 antigen protein (amino acids 1-220 of human Notch1 with human Fc-tag or histidine-tag) (human) (UniProt P46531); assay: Biacore, binding to Notch1 antigen
[2] = target: T1, Notch1 antigen protein (amino acids …); assay: Biacore, binding to Notch1 antigen
Text: The two best humanized 13M57 antibodies (13M57H5 L6 and 13M57H5 L21) were then further characterized. The humanized 13M57 antibodies were purified using protein A chromatography.

[3] = target: T1, Notch1 antigen protein (amino acids …); assay: ELISA of HEK 293 conditioned media on Notch1 antigen; heavy chain cotransfected with the murine 13M57 light chain
Protocol: The functionality of each candidate variant humanized heavy and light chain was tested by cotransfection into mammalian cells. Each of the eleven candidate humanized 13M57 heavy chains described above was cotransfected with the murine 13M57 light chain cDNA into HEK 293 cells, and conditioned media was then assayed for Notch1 antigen binding activity by ELISA. […] This variant—“13M57H5”—contained, in additional to murine CDRs, murine residues at five framework positions, Kabat positions 44, 46, 49, 89, and 93 (FIG. 3). The 13M57H5 humanized heavy chain was then cotransfected with each of the eleven candidate humanized light chains into HEK293 cells, and conditioned media was again assayed for antigen binding by ELISA. […] To evaluate the importance of the individual murine residues in 13M57 L5 and 13M57 L6, a farther series of candidate variant light chains were synthesized that combined one or more of the murine residues at Kabat positions 42-45 and 89-90. These candidate variant light chains were then tested as described above.

| Kd [2] [pM] | Binder | also measured |
| --- | --- | --- |
|  | murine monoclonal antibody 13M57 (antibody, from another filing, V domains shown) VH: EVNLVESGGDLVQPGGSLRLSCAASGFTFSSYTMSWVRQTPEKRLEWVAYIDYGGDFTSYSDAIRGRFTISRDNAKNTLYLQMSSLKSEDTAIYYCSRRRYDAMDYWGQGTSVIVSS VL: DIQMTQSTSSLSASLGDRVTVSCSASQAISNYLNWYQQKPDGTLKLLIYYTTNLHSGVPSRFSGSGSGTDYSLTISNLEPEDIATYYCQQYSKFPWTFGGGTKLEIKR | Kd [1]: 50 pM |
| ~80 | humanized 13M57H5L6 antibody (antibody, human IgG2, V domains shown, Variant heavy chains were fused in-frame to the human IgG2 constant region; also called 13M57 L6H5; humanized L6H5 13M57) VH: EVQLVESGGGLVQPGGSLRLSCAASGFTFSSYTMSWVRQAPGKRLEWVAYIDYGGDFTSYSDAIRGRFTISRDNAKNTLYLQMNSLRAEDTAIYYCSRRRYDAMDYWGQGTLVTVSS VL: DIQMTQSPSSLSASVGDRVTITCSASQAISNYLNWYQQKPGKAPKLLIYYTTNLHSGVPSRFSGSGSGTDYSFTISSLQPEDIATYYCQQYSKFPWTFGGGTKVEIKR |  |
|  | 13M57H5 humanized heavy chain cotransfected with the murine 13M57 light chain (antibody, human IgG2, V domains shown, Heavy chain fused to the human IgG2 constant region; tested as conditioned medium from HEK 293 cells) VH: EVQLVESGGGLVQPGGSLRLSCAASGFTFSSYTMSWVRQAPGKRLEWVAYIDYGGDFTSYSDAIRGRFTISRDNAKNTLYLQMNSLRAEDTAIYYCSRRRYDAMDYWGQGTLVTVSS VL: DIQMTQSTSSLSASLGDRVTVSCSASQAISNYLNWYQQKPDGTLKLLIYYTTNLHSGVPSRFSGSGSGTDYSLTISNLEPEDIATYYCQQYSKFPWTFGGGTKLEIK | binding result [3]: binds |
| ~100 | humanized 13M57H5L21 antibody (antibody, human IgG2, V domains shown, Human IgG2 heavy chain constant region; also called 13M57 L21H5; ATCC PTA-8424) VH: EVQLVESGGGLVQPGGSLRLSCAASGFTFSSYTMSWVRQAPGKRLEWVAYIDYGGDFTSYSDAIRGRFTISRDNAKNTLYLQMNSLRAEDTAIYYCSRRRYDAMDYWGQGTLVTVSS VL: DIQMTQSPSSLSASVGDRVTITCSASQAISNYLNWYQQKPDGTLKLLIYYTTNLHSGVPSRFSGSGSGTDYSFTISSLQPEDIATYYCQQYSKFPWTFGGGTKVEIKR |  |
